The term Km denotes the substrate concentration at which the rate is half of its maximum.

Substrate in data set [1]: NC(=O)C1=CN([C@@H]2O[C@H](COP(=O)(O)OP(=O)(O)OC[C@H]3O[C@@H](n4cnc5c(N)ncnc54)[C@H](OP(=O)(O)O)[C@@H]3O)[C@@H](O)[C@H]2O)C=CC1
Briefly: purified protein, by the assay type.

Substrate in data set [2]: NC(=O)C1=CN([C@@H]2O[C@H](COP(=O)(O)OP(=O)(O)OC[C@H]3O[C@@H](n4cnc5c(N)ncnc54)[C@H](OP(=O)(O)O)[C@@H]3O)[C@@H](O)[C@H]2O)C=CC1
Briefly: purified protein. The note with it: pH 7.1.

Changes are numbered by the printed parent chain. In names and notes the source's numbering stands.

B1: AtPORA (Arabidopsis thaliana) (protein)
chain: QAIATSTPSVTKSSLDRKKTLRKGNVVVTGASSGLGLATAKALAETGKWHVIMACRDFLKAERAAQSAGMPKDSYTVMHLDLASLDSVRQFVDNFRRAEMPLDVLVCNAAVYQPTANQPTFTAEGFELSVGINHLGHFLLSRLLIDDLKNSDYPSKRLIIVGSITGNTNTLAGNVPPKANLGDLRGLAGGLNGLNSSAMIDGGDFVGAKAYKDSKVCNMLTMQEFHRRFHEDTGITFASLYPGCIATTGLFREHIPLFRTLFPPFQKYITKGYVSESEAGKRLAQVVADPSLTKSGVYWSWNKTSASFENQLSQEASDVEKARRVWEVSEKLVGLA
Take B1: in data set [1], the Michaelis-Menten constant (Km) was 2.47 µM.

B2: AtPORC (Arabidopsis thaliana) (protein)
chain: QTVTATPPANEASPEQKKTERKGTAVITGASSGLGLATAKALADTGKWHVIMACRNFLKAEKAARSVGMSKEDYTVMHLDLASLESVKQFVENFRRTEQPLDVLVCNAAVYQPTAKEPSFTAEGFEISVGTNHLGHFLLSRLLLDDLKKSDYPSKRMIIVGSITGNTNTLAGNVPPKANLGDLRGLASGLNGQNSSMIDGGEFDGAKAYKDSKVCNMLTMQELHRRYHEETGVTFASLYPGCIATTGLFREHIPLFRLLFPPFQKYITKGYVSEEEAGKRLAQVVSDPSLGKSGVYWSWNNNSSSFENQLSKEASDAEKAKKLWEVSEKLVGLA
On to B2, for which the Km in data set [1] came to 0.73 µM.

B3: SynPOR (Synechocystis sp. PCC 6803 substr. Kazusa) (protein)
chain: MEQPMKPTVIITGASSGVGLYGAKALIDKGWHVIMACRNLDKTQKVADELGFPKDSYTIIKLDLGYLDSVRRFVAQFRELGRPLKALVCNAAVYFPLLDEPLWSADDYELSVATNHLGHFLLCNLLLEDLKACPDADKRLIILGTVTANSKELGGKIPIPAPPDLGNFEGFEAGFKKPIAMINNKKFKSGKAYKDSKLCNMLTTRELHRRFHQETGIVFNSLYPGCVADTPLFRNHYSLFRTIFPWFQKNVTKGYVSQELAGERVAMVVADDKFKDSGVHWSWGNRQQAGREAFVQELSEQGSDAQKAQRMWDLSEKLVGLV
Turning to B3, the Km in data set [1] was 12.85 µM.

B4: TaPOR1 (Triticum aestivum) (protein)
chain: GVVVITGASSGLGLAAAKALAETGKWHVVMACRDFLKASKAAKAAGMADGSYTVMHLDLASLDSVRQFVDAFRRAEMPLDVLVCNAAIYRPTARTPTFTADGHEMSVGVNHLGHFLLARLLMEDLQKSDYPSRRMVIVGSITGNSNTLAGNVPPKASLGDLRGLAGGLSGASGSAMIDGDESFDGAKAYKDSKVCNMLTMQEFHRRYHEETGITFSSLYPGCIATTGLFREHIPLFRTLFPPFQKFVTKGFVSEAESGKRLAQVVAEPSLTKSGVYWSWNKDSASFENQLSQEASDPEKARKVWELSEKLVGLA
On to B4, for which the Km in data set [1] was found to be 39.67 µM.

B5: AtPORB (Arabidopsis thaliana) (protein)
chain: QTAATSSPTVTKSVDGKKTLRKGNVVVTGASSGLGLATAKALAETGKWNVIMACRDFLKAERAAKSVGMPKDSYTVMHLDLASLDSVRQFVDNFRRTETPLDVLVCNAAVYFPTAKEPTYSAEGFELSVATNHLGHFLLARLLLDDLKKSDYPSKRLIIVGSITGNTNTLAGNVPPKANLGDLRGLAGGLNGLNSSAMIDGGDFDGAKAYKDSKVCNMLTMQEFHRRFHEETGVTFASLYPGCIASTGLFREHIPLFRALFPPFQKYITKGYVSETESGKRLAQVVSDPSLTKSGVYWSWNNASASFENQLSEEASDVEKARKVWEISEKLVGLA
For the protein B5, in data set [1], the Km is 1.27 µM.

B6: AtPORB (Arabidopsis thaliana; S312E) (protein)
chain: B5 chain with S246E
In the case of B6, the Km in data set [2] turned out to be 14.4 ± 1.66 µM.

Values taken from doi:10.1101/2024.03.08.584095v1.
